The values below come from patent US20240108738A1 (Bicycle, published 2024).

Numbered stars: 1 amine (or outer) side, 2 acyl side, 3 side chain; on linkers, the order of the positions; unused ones are H or OH. Bridge positions count the residues as written; N and C are the ends. Square brackets hold non-standard residues; d marks the D form. Ends that are not written are not given here. * marks the point of attachment. TBMT = 2,4,6-tris(bromomethyl)-s-triazine, C(c1nc(C[*:2])nc(C[*:3])n1)[*:1]; TATA = O=C(CC[*:1])N1CN(C(=O)CC[*:2])CN(C(=O)CC[*:3])C1; Pent4ynoyl = C#CCCC(=O)*; PYA = not defined here

For assay [1], the target named is T1, Human NKp46 Fc tag (Acro Biosystems, NC1-H5257) (human, UniProt O76036 22-255).
T1 construct: bought; also called Fc-tagged human NKp46
T1 sequence (O76036 22-255 limits assumed): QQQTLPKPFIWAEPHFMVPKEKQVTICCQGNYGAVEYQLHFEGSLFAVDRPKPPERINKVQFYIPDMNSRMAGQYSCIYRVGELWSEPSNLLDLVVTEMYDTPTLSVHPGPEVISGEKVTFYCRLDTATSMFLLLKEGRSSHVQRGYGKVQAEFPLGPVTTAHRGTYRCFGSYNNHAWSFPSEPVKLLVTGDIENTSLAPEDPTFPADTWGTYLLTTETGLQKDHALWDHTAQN
The experiment in a line: SPR Method 1 and/or 2. In outline:
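Fc-tagged human NKp46 captured on anti-human IgG surface (500–1000 RU); compounds run in PBS-P+ with 2% DMSO at 25 °C, 50 μL/min, 60 s association, 400 s dissociation. Double-referenced, DMSO-corrected; KD from steady-state 1:1 fit, kinetic constants from kinetic 1:1 fit where appropriate.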

Assay [2] has as its target T2, recombinant human NKp46-Fc fusion biotinylated via Avi-tag (human, UniProt O76036 22-255, limits assumed, biotin on Avi-tag).
T2 construct: also called biotinylated NKp46
The experiment in a line: SPR Method 1. The method, then:
SPR experiments were performed to determine kₐ (M⁻¹s⁻¹), kd (s⁻¹), KD (nM) values (where measurable) of various bicyclic peptides to immobilised NKp46.
For analysis of peptide binding to NKp46, a Biacore 3000 instrument was used with a Cytiva Streptavidin chip. Capture of the protein (recombinant human NKp46-Fc fusion biotinylated via Avi-tag) was carried out at 25° C. with HBS-N (10 mM HEPES, 0.15 M NaCl, pH 7.4) as the running buffer and biotinylated NKp46 was captured to a level of 400-800 RU using a dilution of protein to 0.2 μM in buffer. Buffer was then changed to PBS/0.05% Tween 20 and a dilution series of the peptides was prepared in this buffer with a final DMSO concentration of 0.5% with a top peptide concentration of 100 nM-5000 nM and 6 further 2 or 3-fold dilutions. The SPR analysis was run at 25° C. and a flow rate of 50 μl/min with 60 seconds association and 200-400 seconds dissociation time. Data were corrected for DMSO excluded volume effects. All data were double-referenced for blank injections and reference surface using standard processing procedures and data processing and kinetic fitting were performed using Scrubber software, version 2.0c (BioLogic Software). Data were fitted using simple 1:1 binding model allowing for mass transport effects where appropriate.

In assay [3] the target is T3, human NKp46 on cells (CHO-K1/NKp46 cells; CD56+ NK cells of human PBMCs) (human, UniProt O76036 22-304).
T3 construct: whole, on cells; also called NCR1; CD355
T3 sequence (O76036 22-304): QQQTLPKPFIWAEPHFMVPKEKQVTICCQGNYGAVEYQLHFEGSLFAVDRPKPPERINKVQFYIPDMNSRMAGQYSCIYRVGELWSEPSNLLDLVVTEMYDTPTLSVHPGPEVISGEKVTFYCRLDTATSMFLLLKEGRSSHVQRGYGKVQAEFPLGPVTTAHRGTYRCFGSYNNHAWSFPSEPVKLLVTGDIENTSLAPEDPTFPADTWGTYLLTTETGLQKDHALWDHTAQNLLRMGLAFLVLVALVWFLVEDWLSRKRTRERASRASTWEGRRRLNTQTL
The assay is described as follows: Kd,app, flow cytometry CHO-K1/NKp46. The method, then:
Plates were then incubated for 1 hour at room temperature in the dark. Post-incubation, the plates were centrifuged at 500 rpm for 5 minutes and supernatant discarded. Samples were then washed twice in 200 μL of 1× phosphate buffer saline (PBS; Gibco™ 10-010-023) at 500 rpm for 5 minutes. Cells were resuspended in 100 μL of PBS and transferred to a new 96-well V-bottom polypropylene plate (Greiner Bio-One 651201). Plates were centrifuged at 500 rpm for 5 minutes and supernatant discarded.
Preparation of samples for flow cytometry: Zombie Violet™ Fixable Viability Dye (BioLegend® 423113) was prepared as a 1:1000 dilution in PBS and 100 μL of viability dye was added to each well and incubated in the dark at 4° C. for 30 minutes. To ensure NKp46 expression, untreated CHO-K1/NKp46 cells were stained with either anti-human NKp46 or an isotype control. Antibody cocktails were prepared by diluting 1.5 μL of either, PE anti-human NKp46 (BioLegend® 331908; clone 9E2) or PE isotype control IgG1, K (BioLegend® 400112), per 100 μL of stain buffer (1×PBS supplemented with 2% FBS). Cells were resuspended in master mix cocktail (100 μL) and incubated at 4° C. for 30 minutes in the dark. Subsequently, cells were washed 3 times in 100 μL of stain buffer for 5 minutes at 500 rpm and supernatant was discarded. Cells resuspended in 200 μL of stain buffer were kept at 4° C. and in the dark until read by BD FACSCelesta™ flow cytometer.
The binding affinity of the bicyclic peptides were calculated using a four-parameter logistic regression using Prism GraphPad software.
For orientation: Flow cytometry measures light scatter and fluorescence of single cells or particles in a stream.

Assay [4] has as its target T4, human CD16a V176 variant, biotinylated (human, UniProt P08637 17-208, N-terminally biotinylated in-house).
T4 construct: supplier is told for the AlphaScreen assay only; also called V Variant; FcγRIIIA V variant
The assay is described as follows: AlphaScreen competition vs mouse IgG2a. Here is the method:
(§1) Bicyclic peptides were evaluated with a CD16a-IgG competition assay using Perkin Elmer AlphaScreen™ technology. Acceptor beads (Perkin Elmer 6762003) were chemically conjugated via a reductive amination reaction with a mouse IgG2a mAb to link via the free amines, based the manufacturer's protocol. Briefly, beads were centrifuged and resuspended in a 130 mM sodium phosphate buffered solution pH 8.0 containing 0.2 mg mAb, 20 mM NaBH₃CN (Sigma 296945) and 0.06% P20 surfactant (Cytiva Life Sciences, BR-1000-54) and incubated on a rotary shaker at 44° C. for 22 hours. Unbound sites were then blocked by adding a final concentration of 3 mg/ml carboxymethoxylamine (CMO) (Sigma C13408), before continuing shaking incubation for a further 1 hour. Beads were washed by centrifugation and resuspension in 100 mM TRIS-HCl pH 8.0 (Sigma T2694), before a final resuspension in PBS (GIBCO 14190)+0.05% Proclin-300 (Sigma 48912-U), at 5 mg/ml and storage at 4° C. until use.
(§2) The assay was performed in white 384 well plates (PerkinElmer, 6007290) using assay buffer 25 mM HEPES (Sigma-Aldrich, H0887), 100 mM NaCl (Sigma-Aldrich, S5150), 0.5% BSA (Sigma-Aldrich, A3294), 0.05% P20 (Cytiva Life Sciences, BR-1000-54), pH7.4 for all dilutions. […] Mouse IgG2a-conjugated acceptor beads described above were added at a final concentration of 20 ug/ml and incubated at room temperature for 30 minutes under subdued lighting. Streptavidin coated donor beads (PerkinElmer, 6760002) were added a final concentration of 20 ug/ml and incubated at room temperature for 60 minutes under subdued lighting. […] Data was normalised to a high control containing all assay components except Bicyclic peptide and fit to a four-parameter non-linear regression in GraphPad Prism 8.0.2 to generate an IC50 value.

In assay [5] the target is T5, human CD16a F176 variant, biotinylated (human, UniProt P08637 17-208, C-terminally biotinylated).
T5 construct: supplier is told for the AlphaScreen assay only; also called F Variant; FcγRIIIA F variant
T5 sequence (P08637 17-208 limits assumed, change not shown): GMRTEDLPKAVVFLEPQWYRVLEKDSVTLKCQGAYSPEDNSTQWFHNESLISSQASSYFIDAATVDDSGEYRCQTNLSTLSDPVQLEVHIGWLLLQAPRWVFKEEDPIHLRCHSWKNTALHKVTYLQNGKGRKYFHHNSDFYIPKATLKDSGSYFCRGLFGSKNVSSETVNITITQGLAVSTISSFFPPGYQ
The assay is described as follows: AlphaScreen competition vs mouse IgG2a. Here is the method: as §1, §2
(In general: Alpha assays give light when donor and acceptor beads are brought close together.)

In assay [6] the target is T4, human CD16a V176 variant, biotinylated. The experiment in a line: SPR. Here is the method:
(§3) The SPR analysis was run at 25° C. at a flow rate of 50 μl/min with 60 seconds association and dissociation between 60 and 200 seconds. Data were corrected for DMSO excluded volume effects. All data were double-referenced for blank injections and reference surface using standard processing procedures and data processing and kinetic fitting were performed using Scrubber software, version 2.0c (BioLogic Software). Data were fitted using simple 1:1 binding model allowing for mass transport effects where appropriate.
(§4) For analysis of peptide binding, a Biacore 8k+ instrument was used with a CM5 chip (Cytiva). All experiments were carried out at 25° C. Streptavidin was immobilized on all flow cells by standard amine coupling chemistry. The running buffer was HBS-N(Cytiva, 10 mM HEPES, 0.15 M NaCl, pH 7.4) and the flow rate was 10 μl/min. The carboxymethyl dextran surface was activated with a 1:1 ratio of 0.4 M 1-ethyl-3-(3-dimethylaminopropyl) carbodiimide hydrochloride (EDC)/0.1 M N-hydroxy succinimide (NHS) (Cytiva) for 420s. Streptavidin (ProSpec, cat no. PRO-791) was diluted to 0.2 mg/ml in 10 mM sodium acetate pH 4.5 and was injected onto the chip surface for 600 s. Residual activated groups were blocked with a 420 s injection of 1 M ethanolamine (pH 8.5). The final surface density was 2000-3000 RU. Biotinylated CD16a was diluted to 5 μg/ml in HBS-N and was captured on flow cell 2 only of the streptavidin chip at a flow rate of 10 μl/min to 1500-2500 RU. The buffer was then changed to PBS-P+(Cytiva) supplemented with 0.5-2% DMSO. […] The flow rate was 30 μl/min with 100 s association and 400 s dissociation. Data were corrected for DMSO volume exclusion effects. All data were double-referenced against blank injections and reference surface response using standard processing procedures. Data processing and kinetic fitting was performed using Biacore Insight Evaluation Software with Extended Screening and Characterization Extension (Cytiva). Data were fitted using steady state affinity 1:1 binding model to determine KD. Data were fitted using kinetic 1:1 binding model to determine kinetic constants where appropriate.

Assay [7] addresses T5, human CD16a F176 variant, biotinylated. The assay is described as follows: SPR. Here is the method:
as §3, §4
(Surface plasmon resonance follows binding to a sensor surface in real time, without labels.)

Assay [8] has as its target T6, CD16a/FCgRIIIa (F158 variant) on HEK293 cells, Terbium-labelled (UniProt P08637 17-254, limits assumed, Terbium donor dye).
T6 construct: whole, on cells; also called cellular CD16a
The experiment in a line: HTRF competition vs IgG-d2 on HEK293 cells. The method, then:
Binding to cellular CD16a/FCgRIIIa (F158 variant) was determined through competition with IgG for binding to CD16a receptors expressed on HEK293 cells.
The experimental procedure followed the manufacturer's instructions detailed in the product information for the CD16 (FCγRIIIa) kit (Cisbio-6FR3APAG). […] Bicycle peptides were dispensed using Echo compound handler at a top concentration of 20 μM. The competing unlabeled antibodies and bicyclic peptides were added in a three-fold dilution series in Tag-lite buffer into PerkinElmer-ProxiPlate-384 Plus.
The HEK293 cell expressing Terbium-labelled CD16a were thawed and washed in PBS and added to the wells of PerkinElmer-ProxiPlate-384 Plus containing the competitor compounds. […] The data was plotted in Graph pad prism and IC50-values were determined to indicate unlabeled antibody or bicyclic peptide competition for cellular binding to the CD16a receptor.

T4 sequence (P08637 other isoform, or with tags, fused parts or gaps mutant limits assumed): as the sequence (P08637 17-208 limits assumed, change not shown) above, with F160V counted along it
T2 sequence (O76036 22-255 limits assumed): as the sequence (O76036 22-255 limits assumed) above
T6 sequence (P08637 17-254 limits assumed, change not shown): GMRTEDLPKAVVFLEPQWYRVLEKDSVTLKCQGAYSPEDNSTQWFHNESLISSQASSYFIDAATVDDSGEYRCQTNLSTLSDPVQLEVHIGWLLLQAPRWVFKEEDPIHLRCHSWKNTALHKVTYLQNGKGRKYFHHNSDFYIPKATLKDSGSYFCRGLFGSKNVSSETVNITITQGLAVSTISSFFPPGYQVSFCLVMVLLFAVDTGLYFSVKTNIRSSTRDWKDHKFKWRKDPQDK

As to ACYLPDYLCGDEYCAK (C-terminal D-Lys(PYA), scaffold TATA) [BCY15452], the Kd amounted to 13 nM in assay [1] and 27 nM in assay [2].

B1: BCY15013 (peptide)
peptide: ACYLPDWLCGDEYCA[dK](Pent4ynoyl)-NH2
modifications: linker 2-9-14 via TATA; N-terminus assumed
SMILES: C#CCCC(=O)NCCCC[C@@H](NC(=O)[C@H](C)NC(=O)[C@@H]1CSCCC(=O)N2CN3CN(C2)C(=O)CCSC[C@H](NC(=O)[C@H](CC(C)C)NC(=O)[C@H](Cc2c[nH]c4ccccc24)NC(=O)[C@H](CC(=O)O)NC(=O)[C@@H]2CCCN2C(=O)[C@H](CC(C)C)NC(=O)[C@H](Cc2ccc(O)cc2)NC(=O)[C@@H](NC(=O)[C@H](C)N)CSCCC3=O)C(=O)NCC(=O)N[C@@H](CC(=O)O)C(=O)N[C@@H](CCC(=O)O)C(=O)N[C@@H](Cc2ccc(O)cc2)C(=O)N1)C(N)=O
notes: scaffold TATA
As to B1, the Kd in assay [1] came out at 59 nM; in assay [2], 138 nM.
Take ACYLPDWLCGDEYCA[dK](Pent4ynoyl)-NH2 (linker 2-9-14 via TATA; not fully specified; also: AF488 label on linker, homodimer of BCY15013; scaffold TATA) [BCY15455]: the Kd in assay [3] stood at 2.25 nM.

B2: BCY15916 (peptide)
peptide: ACVGLEELGPCSDLCAK-NH2
modifications: linker 2-11-15 via TBMT (inferred); not fully specified (residue 17); also: homodimer via shared N-(amine-PEG2)-N-bis(PEG3-azide) linker
notes: homodimer of BCY13886; scaffold TBMT; also called CD16a fluorescent dimer
Regarding B2, the IC50 (as a rule, the midpoint of a concentration-inhibition curve) came to 113 nM in assay [4] and 52.6 nM in assay [5].
Consider ACPPTVYCHPLDCAK (C-terminal Lys(PYA), scaffold TATA) [BCY15685], for which the Kd was 1850 nM in assay [6] and 7370 nM in assay [7]. Moreover, the IC50 in assay [4] worked out at 3480 nM; in assay [5] it was 11000 nM; in assay [8] it was 7560 nM.

B3: BCY15921 (peptide)
peptide: ACDLTTHNCQWGICAK-NH2
modifications: linker 2-9-14 via TATA; not fully specified (residue 16); also: homodimer via shared N-(amine-PEG2)-N-bis(PEG3-azide) linker
notes: scaffold TATA
For B3, in assay [3], the Kd was 1.48 nM.

B4: BCY15922 (peptide)
peptide: ACNLQAPCMQTGKVCAK-NH2
modifications: linker 2-8-15 via TATA (inferred); not fully specified (residue 17); also: AF488 on linker
notes: homodimer of BCY15687; scaffold TATA
Regarding B4, the Kd in assay [3] worked out at 1.48 nM.
In the case of ACDLTTHNCQWGICAK(PYA) (linker 2-9-14 via TATA (inferred); reading uncertain, scaffold TATA) [BCY15686], in assay [2], the Kd is 276 nM.
As for ACNLQAPCMQTGKVCAK (C-terminal Lys(PYA), scaffold TATA) [BCY15687], the Kd turned out to be 783 nM in assay [1] and 960 nM in assay [2].
In the case of ACVGLEELGPCSDLCAK(Pent4ynoyl)-NH2 (linker 2-11-15 via TBMT (inferred), scaffold TBMT) [BCY13886], the figures for the Kd in assay [6] and in assay [7] were 4280 nM and 8360 nM, respectively. In addition, the results for the IC50 in assay [4] and in assay [5] were 3190 nM and 1830 nM, respectively.
